{"source": "paper PMC7849165", "about": "(The EMBO Journal, 2020)", "target": "T1, N-terminal cytosolic domain of Sec62 (Sec62 domain; residues 18-145) (S. cerevisiae, UniProt P21825 18-145)", "T1 sequence (looked up)": "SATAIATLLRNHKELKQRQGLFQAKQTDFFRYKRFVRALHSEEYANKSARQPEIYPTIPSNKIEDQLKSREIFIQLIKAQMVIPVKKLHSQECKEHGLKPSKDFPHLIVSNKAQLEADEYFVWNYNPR", "experiment": "pull-down", "note": "No end group written: not given here."}
{"binder": "VYSEEDDEYSTDDDETESDDESDASDY (peptide, UniProt P14906 621-647, looked up, also: biotin label, position not given here)", "note": "[Sec63-C1 peptide (residues 621-647 of Sec63), biotin-labeled]", "values": [{"measurement": "binding result", "result": "binds"}]}
